Test: Dynamic light scattering
Assay type: physicochemical
Settings: PBS, 100 mM MgCl2; insulin 25 µM, dAb 1 mg/mL; Figure S2 and S3

insulin: human insulin obtained from R&D Systems; analyte of the assay
aggregation under buffer conditions (DLS): No aggregation

— PMC7856282 (Nature biomedical engineering, 2020)
